Columns and labels:
[1] = target: T1, hFn14-Fc (Fc-tagged ectodomain of human Fn14) (human, UniProt Q9NP84 29-78); experiment: SPR (ProteOn XPR36), hFab amine-coupled, hFn14-Fc as analyte, Langmuir fit, average of 5 measurements
T1 construct: also called Fc-tagged hFn14; not shown: Fc tag
Procedure: The affinity of wildtype Fab clone 6.5 and the light chain shuffled mutants was measured by surface Plasmon resonance (SPR) using the ProteOn XPR36TM instrument (BioRad). Individual channels of a six channel GLC chip were coupled with the relevant hFab ligand at 5 μg/ml in 0.1M sodium acetate buffer pH 4.5 using amine coupling according to the manufacturer's instructions. Five dilutions of analyte hFn14-Fc were prepared in PBS containing 0.005% Tween20 (running buffer) and allowed to flow over the coupled hFab at […] flow rate for 500 seconds to evaluate the “on rate” (ka). This was followed by flow with the running buffer for 1200 seconds to evaluate the “off rate” (kd). This process was repeated until the analyte dilution series allowed a good kinetic fit using the Langmuir statistical model for analysing the ka and kd, where the affinity constant (KD) is the kd/ka. The best fit data was analysed using the ProteOn software measured by Chi2, where the lowest value is the best fit of the model to the SPR binding curves.

[2] = target: T2, BSA (bovine, UniProt P02769); experiment: ELISA of purified hFab 6.5 on a panel of coated antigens, absorbance 450 nm
T2 construct: also called bovine serum albumin
T2 sequence (P02769 25-607 limits assumed): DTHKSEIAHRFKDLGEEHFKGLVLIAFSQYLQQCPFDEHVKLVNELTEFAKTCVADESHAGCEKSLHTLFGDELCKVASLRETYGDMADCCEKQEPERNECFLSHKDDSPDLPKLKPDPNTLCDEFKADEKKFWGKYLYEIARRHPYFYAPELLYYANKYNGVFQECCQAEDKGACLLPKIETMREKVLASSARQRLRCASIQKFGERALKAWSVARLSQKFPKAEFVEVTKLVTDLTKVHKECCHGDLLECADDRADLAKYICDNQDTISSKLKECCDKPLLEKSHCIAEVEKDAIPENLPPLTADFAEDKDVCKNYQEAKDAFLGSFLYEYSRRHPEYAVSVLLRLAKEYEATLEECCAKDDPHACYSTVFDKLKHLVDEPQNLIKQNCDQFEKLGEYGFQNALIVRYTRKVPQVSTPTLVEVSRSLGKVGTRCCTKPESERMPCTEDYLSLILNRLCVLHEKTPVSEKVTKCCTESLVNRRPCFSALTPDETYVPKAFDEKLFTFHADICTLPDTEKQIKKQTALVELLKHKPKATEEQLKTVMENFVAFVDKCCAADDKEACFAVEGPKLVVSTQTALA

T1 sequence (Q9NP84 29-78): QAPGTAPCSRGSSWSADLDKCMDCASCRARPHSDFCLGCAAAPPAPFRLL

B1: hFab 6.5 (Fab, V domains shown)
VH: QVQLVQSGGGLVKPGGSLRLSCAASGFTFTSYAMSWVRQAPGKGLEWVSAISGSGGSTYYADSVKGRFTISRDNPKNTLYLQMNSLRAEDTAVYYCARVRANYYYGMDVWGQGTLVTVSS
VL: LTQSPGTLSLSPGERATLSCRASQSVSSSTLAWYQQKPGQTPRLLIYGASTRATGIPARFSGSGSGTDFTLTISRLEPEDFAVYYCQQYGSSRLTFGGGTKVEIKR
notes: Human Fab from a phage display library, kappa light chain, expressed in the E. coli periplasm; also called clone 6.5; wildtype Fab 6.5
**Q.** Which Kd [1] does the source give for B1 here?
**A.** Its Kd is 22.1 nM.

**Q.** And the koff [1]?
**A.** The koff was 0.00207 s⁻¹.

**Q.** What about the kon [1] of the same binder?
**A.** The kon was 94000 M⁻¹ s⁻¹.

**Q.** Does B1 bind [2]?
**A.** Result: no binding (tested: 10 ug/ml)
